Reference: patent publication US20170305994A1 (Novo Nordisk, published 2017)
Where two headings read alike, the source gives them in different places.

Experiments:
[1] = molecular target: T1, human DR3 (full length, on cells) (human, UniProt Q93038 25-417); experiment: cell-based or functional assay
T1 sequence: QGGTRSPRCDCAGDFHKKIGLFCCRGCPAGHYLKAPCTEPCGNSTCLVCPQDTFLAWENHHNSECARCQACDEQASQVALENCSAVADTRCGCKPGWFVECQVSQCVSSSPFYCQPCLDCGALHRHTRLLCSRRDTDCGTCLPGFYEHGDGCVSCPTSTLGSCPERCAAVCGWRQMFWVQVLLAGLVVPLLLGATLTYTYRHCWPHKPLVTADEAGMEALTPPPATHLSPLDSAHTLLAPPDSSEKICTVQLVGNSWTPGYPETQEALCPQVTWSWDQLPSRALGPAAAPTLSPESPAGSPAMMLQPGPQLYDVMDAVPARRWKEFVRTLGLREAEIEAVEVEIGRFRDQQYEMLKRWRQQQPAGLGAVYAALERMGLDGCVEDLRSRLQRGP

[2] = molecular target: T1, human DR3 (full length, on cells); experiment: flow cytometry on IL-12/IL-18/TL1A activated CD4+ T cells, 1 µg/ml
Description: (§1) Buffy Coats were obtained from normal healthy volunteers from Copenhagen University Hospital. CD4+ T cells were isolated through magnetic bead separation. Cells were activated with 2 ng/ml IL-12, 50 ng/ml IL-18 and 100 ng/ml TL1A (Flag-HIS-TEV-TL1A-produced at Novo Nordisk A/S) and cultured for 5 days. On day 5 cells were stained with 10, 5, 1, 0.5, 0.1 or 0.0001 μg/ml of the anti-DR3 mAb clones 0072, 0073, or 0077, or with Fab fragment clones 0087, 0088 and 0091. A secondary PE conjugated goat-anti-mouse (H+L) was used for detection.
The greater observed MFI values of IgG treated compared with Fab treated cells was expected since the secondary (detecting) antibody (anti-IgG heavy and light chain) bound to both Fab and Fc parts of the full-length IgG antibody clones, but only to Fab parts of Fab clones (Table 9).

[3] = molecular target: T1, human DR3 (full length, on cells); experiment: as above; remark: listed apart in the source
Description: as §1
as §1, with “Material and Methods: Buffy” for “Buffy”, “Copenhagen” for “Copenhagen University”, “0088 or” for “0088 and”, “detection. Samples were in duplicate. Staining intensity was evaluated by FACS.” for “detection.”

[4] = molecular target: T1, human DR3 (full length, on cells); experiment: cell-based or functional assay; remark: listed apart in the source
[5] = molecular target: T1, human DR3 (full length, on cells); experiment: flow cytometry on CD3/CD28-stimulated human CD4+ T cells
Description: Human CD4-positive T cells were purified from Buffy coats using CD4 Rosettesep (Stem cell technologies) and Histopaque (Sigma). T cells were stimulated with CD3/CD28 Dynabeads (Invitrogen) at a 1:1 ratio for 4 days in T75 flask at 2 mio CD4 T cells/ml in RPMI supplemented with 10% fcs. Beads were removed using a magnet, and cells were washed twice before titrating in antibodies on 500.000 cells/staining. Binding saturation was measured after incubation with goat-anti-mouse phycoerythrin (Jackson ImmunoResearch) and cells were subsequently analysed by flow cytometry on a BD LSRII. All antibodies reached saturation at 3 μg/ml.

Binder	fold response, DR3 reporter, 40 ng/ml TL1A + 0.1 microg/ml [1] [fold]	fold response, DR3 reporter, 40 ng/ml TL1A + 1 microg/ml [1] [fold]	fold response, DR3 reporter, 40 ng/ml TL1A + 10 microg/ml [1] [fold]	fold response, DR3 reporter, 40 ng/ml TL1A + 100 microg/ml [1] [fold]	fold response, DR3 reporter, no TL1A, 0.1 microg/ml [1] [fold]	fold response, DR3 reporter, no TL1A, 1 microg/ml [1] [fold]	fold response, DR3 reporter, no TL1A, 10 microg/ml [1] [fold]	fold response, DR3 reporter, no TL1A, 100 microg/ml [1] [fold]	MFI [2] [MFI]	MFI [3] [MFI]	other results
0087 (Fab from papain cleavage of mAb 0072) (Fab, V domains shown, murine IgG1 Fab by papain cleavage) VH: EVKLVESGGGLVKPGGSLKLSCSASGFAFSNYDMSWVRQTPEKRLEWVAAFSSDGYTFYPDSLKGRFTISRDNARNTLYLQMSSLGSEDTALYCCARHADYANYPVMDYWGQGTSVTVSS VL: DIVLAQSPASLLVSLGQRATISCRASKSVSTSGYSYMHWYQQKPGQPPKLLIYLASNLESGVPARFSGSGSGTDFTLNIHPVEEEDAATYYCQHSRELPLTFGAGTMLELKR	5.8	2.7	2.1	2.1	1	1	1	1	500	500	–
0073 (murine mAb purified from hybridoma 28F26A3) (antibody, V domains shown, murine IgG2a, kappa; also called 0085) VH: EVKVVESGGGLVKPGGSLKLSCAASGFVFSSYDMSWVRQIPEKRLEWVAAISSGDYYTYYPDSVKGRFTISRDDARNTLYLQMSSLRSEDTALYYCARHRGGNYPQYAMDYWGQGTSVTVSS VL: DILLTQSPASFAVSLGQRATISCRASKSVSTSGYNYIHWYQQKPGQPPKLLIYLTSNLESGVPARFSGSGSGTDFTLNIHPVEEEDAATYYCQHSRELPFTFGSGTKLEIKR	–	–	–	–	–	–	–	–	1300	1300	fold response, DR3 reporter, 40 ng/ml TL1A + 0.1 microg/ml [4]: 24.2 fold; fold response, DR3 reporter, 40 ng/ml TL1A + 1 microg/ml [4]: 27.9 fold; fold response, DR3 reporter, 40 ng/ml TL1A + 10 microg/ml [4]: 25.5 fold; fold response, DR3 reporter, 40 ng/ml TL1A + 100 microg/ml [4]: 19 fold; fold response, DR3 reporter, no TL1A, 0.1 microg/ml [4]: 12.8 fold; fold response, DR3 reporter, no TL1A, 1 microg/ml [4]: 14.4 fold; fold response, DR3 reporter, no TL1A, 10 microg/ml [4]: 12.8 fold; fold response, DR3 reporter, no TL1A, 100 microg/ml [4]: 6.9 fold; Median Fluorescent Intensity [5]: 2840; Staining index (MFI Ab/MFI Isotype) [5]: 12.8; saturation concentration [5]: 3 µg/mL
0088 (Fab from papain cleavage of mAb 0073) (Fab, V domains shown, murine IgG2a Fab by papain cleavage) VH: EVKVVESGGGLVKPGGSLKLSCAASGFVFSSYDMSWVRQIPEKRLEWVAAISSGDYYTYYPDSVKGRFTISRDDARNTLYLQMSSLRSEDTALYYCARHRGGNYPQYAMDYWGQGTSVTVSS VL: DILLTQSPASFAVSLGQRATISCRASKSVSTSGYNYIHWYQQKPGQPPKLLIYLTSNLESGVPARFSGSGSGTDFTLNIHPVEEEDAATYYCQHSRELPFTFGSGTKLEIKR	15.2	6.3	2.9	2.8	1.1	1.1	1.1	1	500	500	–
